Laboratory results reported in patent publication US20060084596A1 (UNIVERSITY OF SOUTH FLORIDA, published 2006).
Where “and” joins values, the source holds several entries; their conditions need not be identical. Identical values can stand only once. Positions of bridges follow the written chain, without caps; N, C: chain ends. Non-standard residues stand in square brackets, D forms with d. No end group written: not given here. d2Nal = N[C@H](Cc1ccc2ccccc2c1)C(=O)O; dAbu = CC[C@@H](N)C(=O)O

B1: GFB-135 (designed binder)
peptide 1: GDGY
peptide 2: GDDD
modifications: also: 3 GDGY loops and 1 GDDD loop on But-Calix scaffold, linker to a chain's N/C-terminus via 3-aminomethyl-5-aminobenzamide
B2: GFB-133 (designed binder)
peptide: GDGY
modifications: linker N-C via 3‑aminomethyl‑5‑aminobenzamide; also: 3 GDGY loops on But-Calix scaffold, CO2H at fourth position
B3: GFB-136 (designed binder)
peptide 1: GDDD
peptide 2: GDGY
modifications: also: 3 GDDD loops and 1 GDGY loop on But-Calix scaffold, linker to a chain's N/C-terminus via 3-aminomethyl-5-aminobenzamide
B4: GFB-108 (designed binder)
peptide: [dA]DGD
modifications: linker N-C via 3‑aminomethyl‑5‑aminobenzamide; also: four loops on But-Calix calix[4]arene scaffold
B5: GFB-101 (designed binder)
peptide: GFGD
modifications: linker N-C via 3‑aminomethyl‑5‑aminobenzamide; also: four loops on O4-Calix calix[4]arene scaffold
B6: GFB-110 (designed binder)
peptide: GDAD
modifications: linker N-C via 3‑aminomethyl‑5‑aminobenzamide; also: four loops on But-Calix calix[4]arene scaffold
B7: GFB-122 (designed binder)
peptide: GDDY
modifications: linker N-C via 3‑aminomethyl‑5‑aminobenzamide; also: four loops on But-Calix calix[4]arene scaffold
B8: GFB-109 (designed binder)
peptide: GDLD
modifications: linker N-C via 3‑aminomethyl‑5‑aminobenzamide; also: four loops on But-Calix calix[4]arene scaffold
B9: GFB-119 (designed binder)
peptide: PDGD
modifications: linker N-C via 3‑aminomethyl‑5‑aminobenzamide; also: four loops on But-Calix scaffold
B10: GFB-118 (designed binder)
peptide: [d2Nal]DGD
modifications: linker N-C via 3‑aminomethyl‑5‑aminobenzamide; also: four loops joined to But-Calix calix[4]arene scaffold
B11: GFB-117 (designed binder)
peptide: GDND
modifications: linker N-C via 3‑aminomethyl‑5‑aminobenzamide; also: four loops on But-Calix scaffold
B12: GFB-134 (designed binder)
peptide 1: GDGY
peptide 2: GDDY
modifications: also: 3 GDGY loops and 1 GDDY loop on But-Calix scaffold, linker to a chain's N/C-terminus via 3-aminomethyl-5-aminobenzamide
B13: GFB-106 (designed binder)
peptide: GDDD
modifications: linker N-C via 3‑aminomethyl‑5‑aminobenzamide; also: four loops on But-Calix calix[4]arene scaffold
B14: GFB-121 (designed binder)
peptide: [dAbu]DGD
modifications: linker N-C via 3‑aminomethyl‑5‑aminobenzamide; also: four loops joined to But-Calix calix[4]arene scaffold
B15: GFB-137 (designed binder)
peptide 1: GDGY
peptide 2: GDDG
modifications: not fully specified; also: linker to a chain's N/C-terminus via 3-aminomethyl-5-aminobenzamide
B16: GFB-112 (designed binder)
peptide: ADGD
modifications: linker N-C via 3‑aminomethyl‑5‑aminobenzamide; also: four loops on But-Calix calix[4]arene scaffold
B17: GFB-132 (designed binder)
peptide 1: GDGY
peptide 2: GDDG
modifications: also: 3 GDGY loops and 1 GDDG loop on But-Calix scaffold, linker to a chain's N/C-terminus via 3-aminomethyl-5-aminobenzamide
B18: GFB-102 (designed binder)
peptide: GDFD
modifications: linker N-C via 3‑aminomethyl‑5‑aminobenzamide; also: four loops on O4-Calix calix[4]arene scaffold
B19: GFB-107 (designed binder)
peptide: GDGD
modifications: linker N-C via 3‑aminomethyl‑5‑aminobenzamide; also: four loops on But-Calix calix[4]arene scaffold
B20: GFB-105 (designed binder)
peptide: GDFD
modifications: linker N-C via 3‑aminomethyl‑5‑aminobenzamide; also: four loops on But-Calix calix[4]arene scaffold
B21: GFB-104 (designed binder)
peptide: GDGD
modifications: linker N-C via 3‑aminomethyl‑5‑aminobenzamide; also: four loops on O3-Calix calix[4]arene scaffold

Molecular target: platelet derived growth factor PDGF-BB (UniProt P01127 82-190)
Sequence (P01127 82-190 limits assumed): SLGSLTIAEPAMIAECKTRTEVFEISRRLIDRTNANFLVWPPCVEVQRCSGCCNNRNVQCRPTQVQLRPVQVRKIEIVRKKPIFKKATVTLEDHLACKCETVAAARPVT
Experiment: cell-based or functional assay

Binder | IC50, PDGFR-Y-P [µM] | IC50, p42/Erk2: p42 [µM] | IC50, p42/Erk2: p44 [µM] | IC50, p42/Erk2 [µM]
B1 | 1.9 | 3.2 | 24 | 
B2 |  | 3.2 | 3 | 
B3 | 3 | 25 | 24 | 
B4 | 9 |  |  | 57
B5 | > 500 |  |  | > 500
GDGY (designed binder, linker N-C via 3‑aminomethyl‑5‑aminobenzamide; also: loops on DPM-2 scaffold) [GFB-128] |  |  |  | > 50
B6 | 1.7 |  |  | 7
B7 | 1.7 |  |  | 19
B8 | 7.5 |  |  | 15
B9 | 20 |  |  | 32
B10 | 0.7 |  |  | 1.2
B11 | 5.8 |  |  | 36
B12 | 1.9 | 2.5 | 2.6 | 
B13 | 8 |  |  | 33
B14 | 5.6 |  |  | 8.5
B15 | 0.4 | 2.9 |  | 
B16 | 29 |  |  | 26
B17 | 0.4 | 2.9 |  | 

Molecular target: vascular endothelial growth factor (VEGF) (UniProt P15692-4 27-191, limits assumed)
Sequence (P15692 other isoform, or with tags, fused parts or gaps limits assumed): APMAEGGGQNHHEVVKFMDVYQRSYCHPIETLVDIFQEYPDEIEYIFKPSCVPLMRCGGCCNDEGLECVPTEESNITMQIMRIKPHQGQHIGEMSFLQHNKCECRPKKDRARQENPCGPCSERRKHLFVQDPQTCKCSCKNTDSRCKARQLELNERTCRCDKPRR
Experiment: cell-based or functional assay

Binder | IC50, Flk-1-Y-P [µM] | IC50, p42 [µM] | IC50, p44 [µM]
B4 | 10 | 50 | 50
B5 | > 100 | > 100 | > 100
B18 |  | > 100 | > 100
B19 | < 10 | 100 | 100
B13 | < 10 | < 10 | < 10
B16 | < 10 | 10 | 10
B20 |  | > 100 | > 100

Molecular target: acidic fibroblast growth factor (aFGF) (UniProt P05230 16-155, limits assumed)
Sequence (P05230 16-155 limits assumed): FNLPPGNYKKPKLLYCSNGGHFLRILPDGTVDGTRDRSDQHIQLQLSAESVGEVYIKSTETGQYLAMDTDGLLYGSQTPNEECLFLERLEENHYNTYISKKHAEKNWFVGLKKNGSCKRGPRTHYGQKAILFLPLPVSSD
Experiment: cell-based or functional assay

Binder | (IC50) Inhibition, p42 | (IC50) Inhibition, p44 | (IC50) Inhibition, p42 (mean) | (IC50) Inhibition, p44 (mean)
B1 | 44.1 µM per head; likely % | 53.9 µM per head; likely % |  | 
B2 |  | 101 µM per head; likely % |  | 
B3 | 73.1 µM per head; likely % | 84.5 µM per head; likely % |  | 
B4 | 67.8 µM per head; likely % | 80.1 µM per head; likely % |  | 
GDGY (designed binder, linker N-C via 3‑aminomethyl‑5‑aminobenzamide; also: loops on DPM-2 scaffold) [GFB-128] |  | 43.3 µM per head; likely % |  | 
B6 | 76.1 µM per head; likely % and 93 µM per head; likely % | 85.2 µM per head; likely % and 98.9 µM per head; likely % |  | 
B7 | 57.3 µM per head; likely % | 71.6 µM per head; likely % |  | 
B8 | 68.3 µM per head; likely % | 79.7 µM per head; likely % |  | 
B9 | 62.6 µM per head; likely % and 72.1 µM per head; likely % and 47.8 µM per head; likely % | 78.9 µM per head; likely % and 81.7 µM per head; likely % and 58.1 µM per head; likely % | 60.8 µM per head; likely % | 72.9 µM per head; likely %
B10 | 20.6 µM per head; likely % | 30.5 µM per head; likely % |  | 
B11 | 63.4 µM per head; likely % and 67.6 µM per head; likely % | 80.8 µM per head; likely % and 84.3 µM per head; likely % |  | 
B12 | 54.8 µM per head; likely % | 64.1 µM per head; likely % |  | 
B14 | 8.7 µM per head; likely % | 8.9 µM per head; likely % |  | 
GDDY (designed binder, linker N-C via 3‑aminomethyl‑5‑aminobenzamide; also: loops on DPM-2 scaffold) [GFB-130] | 78.9 µM per head; likely % | 78.9 µM per head; likely % |  | 
B15 |  | 19.9 µM per head; likely % |  | 
B16 | 59.7 µM per head; likely % and 40.2 µM per head; likely % | 62.9 µM per head; likely % and 39.6 µM per head; likely % |  | 
B20 | 66.4 µM per head; likely % | 75.7 µM per head; likely % |  | 
B17 |  | 50.2 µM per head; likely % |  | 

Molecular target: insulin-like growth factor-1 (IGF-1) (UniProt P05019 49-118)
Sequence (P05019 49-118 limits assumed): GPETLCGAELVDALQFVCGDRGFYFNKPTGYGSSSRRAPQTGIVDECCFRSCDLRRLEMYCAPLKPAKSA
Experiment: cell-based or functional assay

Binder | % Inhibition at 100 µM, IGF1R-Y-P [%] | % Inhibition at 100 µM, p42 [%] | % Inhibition at 100 µM, p44 [%]
B1 | 16.2 | 0.8 | 46.1
GDDD (designed binder, linker N-C via 3‑aminomethyl‑5‑aminobenzamide; also: loops on DPM-2 scaffold) [GFB-129] | 3.4 | 2.8 | 33.4
B3 | 40.6 | 15 | 59.5
B4 |  | 67.8 | 80.1
GDGY (designed binder, linker N-C via 3‑aminomethyl‑5‑aminobenzamide; also: loops on DPM-2 scaffold) [GFB-128] | -12 | -6.1 | 38.2
B8 |  | 68.3 | 79.7
B9 | 16.7 | 29.7 | 66.2
B10 | 1.5 | 16.4 | 55.2
B11 | 4.9 | 17.1 | 61.5
B12 | 16.8 | 4.9 | 53.5
B14 | 33.8 | 28.3 | 62.1
B16 | 0.6 | -7.6 | 30.4
B20 | 1.3 |  | 
B21 | -28.4 |  | 
